Reference: patent US7166733B2, “O,O'-Amidomalonate and N,O-Amidomalonate platinum complexes” (priority 2000, dated 2007)

What was measured:
[1] = Dependence on pH of the isomer ratio of O,O′—Pt to N,O—Pt chelate (195Pt NMR of timed aliquots); assay type: physicochemical
Procedure: The percent of O,O′- and N,O-chelate in timed aliquots of reactions mixtures were determined by removing enough of the reaction mixture (4–15 mL depending on concentration) to give greater than 100 mg of Pt-chelate if only ^195Pt NMR spectroscopy was to be done or about 200 mg if % Pt, and % H2O were also to be determined. The aliquots were purified by ultrafiltration using a Centricon Plus-20 centrifugal filter with a 5 kDa Biomax membrane from Millipore. The charged device was spun at the recommended RCF until less than 1 mL remained. The filtrate was discarded, the retentate was diluted with 15–18 mL water and the sample was centrifuged. This was repeated once more, and the retentate was lyophilized to give the sample for analysis.
^195Pt NMR spectra were obtained from a filtered 0.70 mL solution in 93/7 H2O/D2O in a 5 mm tube. Enough sample (80–120 mg) was used to give a solution that was >50 mM in platinum. The probe was tuned for each sample. A pulse width of 90 degrees, an acquisition time of 10 msec, a spectral window of 100 kHz and no delay was used. The transmitter was tuned to approximately midway between the O,O′—Pt and N,O—Pt chelates shifts (−1896 ppm for cis-diammine Pt and at −2450 for DACH—Pt). Between 50,000 and 1 million transients were typically required to obtain a sufficient (>35:1) s/n ratio for the cis-diammine-Pt and DACH=Pt species, respectively. The resulting FID was increasingly left-shifted until a flat baseline was obtained, a 100 Hz line broadening was applied, and a Fourier fill of 2048 was applied before processing. Integral regions were set and the spectrum's baseline was subjected to a spline fit using VNMR software v6.1. The sample was referenced externally to a 100 mM sample of K2PtCl4 in 95/5H2O/D2O and 100 mM HCl at −1624 ppm. This was also used to determine the 90 degree pulse width and T1.
Four 50 mL Centrifuge tubes were each charged with 1.00 g of p(HPMA)-GFLG-Ama=Pt(NH3)2 (either 100% N,O-chelate) or a 92% O,O-chelate, 8% N,O-chelate mixture. These materials were dissolved in 27 mL Milli-Q water (approx a 4 wt % solution) and adjusted to the pH ranges desired using 1 M NaOH or 5% HClO4 as appropriate. The samples were then heated, with stirring, in a 38° C. water bath and maintained within their specified pH ranges. Timed aliquots were taken and frozen until a suitable time at which point the solutions were concentrated by centrifugal ultrafiltration (one spin down at 4800 rpm, 30° C.) and then transferred to an NMR tube. A small amount of D2O was added to each tube and the ^195Pt NMR spectra were recorded.

Bl6FI0 melanoma cells = test: Clonogenic (colony-formation) assay; assay type: cell-based, murine; details: 7 days incubation
Procedure: The relative cytotoxic activity of various O,O′—Pt chelate analogs were evaluated in vitro by means of a clonogenic (colony-formation) assay employing a tissue culture of Bl6FI0 melanoma cells. In this way, the activity of the analogs was compared to that of cisplatin and carboplatin. The effect of conversion to an N,O—Pt chelate was also evaluated. Briefly, cells were seeded into culture dishes and allowed to attach. The cultures were incubated for 7 days in medium containing the desired concentration of the test agent. After fixation, the number of cell clusters containing >50 cells was scored as a colony. Each concentration of test agent was assayed in triplicate. The mean number of colonies in each of the triplicate dishes was divided by the mean number of colonies in the control (no test agent) dishes to obtain a percent survival value for each concentration of test agent. The IC50 (concentration resulting in 50% inhibition of growth) of each of the agents was determined by linear regression analysis using the data values directly above and below the 50% survival point.

[2] = pH 5.0–5.5, 38° C., 100 mM ClO4^−, 1 h
[3] = pH 5.0–5.5, 38° C., 100 mM ClO4^−, 5 h
[4] = pH 5.0–5.5, 38° C., 100 mM ClO4^−, 8 h
[5] = pH 5.0–5.5, 38° C., 100 mM ClO4^−, 22 h
[6] = pH 5.0–5.5, 38° C., 100 mM Cl^−, 1 h
[7] = pH 5.0–5.5, 38° C., 100 mM Cl^−, 5 h
[8] = pH 5.0–5.5, 38° C., 100 mM Cl^−, 8 h
[9] = pH 5.0–5.5, 38° C., 100 mM Cl^−, 22 h

Substance: poly(HPMA)-GFLG-Ama=Pt(NH3)2, N,O—Pt chelate [Example 4]
- N,O— chelate ([1]; pH 3.0–3.5, 38° C., 1 h): 2%
- O,O— chelate ([1]; pH 3.0–3.5, 38° C., 1 h): 98%
- N,O— chelate ([1]; pH 3.0–3.5, 38° C., 5 h): 0%
- O,O— chelate ([1]; pH 3.0–3.5, 38° C., 5 h): 100%
- N,O— chelate ([1]; pH 3.0–3.5, 38° C., 20 h): 0%
- O,O— chelate ([1]; pH 3.0–3.5, 38° C., 20 h): 100%
- N,O— chelate ([1]; pH 4.0–4.5, 38° C., 1 h): 55%
- O,O— chelate ([1]; pH 4.0–4.5, 38° C., 1 h): 45%
- N,O— chelate ([1]; pH 4.0–4.5, 38° C., 5 h): 44%
- O,O— chelate ([1]; pH 4.0–4.5, 38° C., 5 h): 56%
- N,O— chelate ([1]; pH 4.0–4.5, 38° C., 20 h): 32%
- O,O— chelate ([1]; pH 4.0–4.5, 38° C., 20 h): 68%
- N,O— chelate [1, 2]: 90%
- O,O— chelate [1, 2]: 10%
- N,O— chelate [1, 3]: 88%
- O,O— chelate [1, 3]: 12%
- N,O— chelate [1, 4]: 77%
- O,O— chelate [1, 4]: 23%
- N,O— chelate [1, 5]: 75%
- O,O— chelate [1, 5]: 25%
- N,O— chelate [1, 6]: 91%
- O,O— chelate [1, 6]: 9%
- N,O— chelate [1, 7]: 92%
- O,O— chelate [1, 7]: 8%
- N,O— chelate [1, 8]: 89%
- O,O— chelate [1, 8]: 11%
- N,O— chelate [1, 9]: 87%
- O,O— chelate [1, 9]: 13%
- N,O— chelate ([1]; pH 5.0–5.5, 38° C., 1 h): 94%
- O,O— chelate ([1]; pH 5.0–5.5, 38° C., 1 h): 6%
- N,O— chelate ([1]; pH 5.0–5.5, 38° C., 5 h): 85%
- O,O— chelate ([1]; pH 5.0–5.5, 38° C., 5 h): 15%
- N,O— chelate ([1]; pH 5.0–5.5, 38° C., 20 h): 81%
- O,O— chelate ([1]; pH 5.0–5.5, 38° C., 20 h): 19%
- N,O— chelate ([1]; pH 6.0–6.5, 38° C., 1 h): 100%
- O,O— chelate ([1]; pH 6.0–6.5, 38° C., 1 h): 0%
- N,O— chelate ([1]; pH 6.0–6.5, 38° C., 5 h): 100%
- O,O— chelate ([1]; pH 6.0–6.5, 38° C., 5 h): 0%
- N,O— chelate ([1]; pH 6.0–6.5, 38° C., 20 h): 100%
- O,O— chelate ([1]; pH 6.0–6.5, 38° C., 20 h): 0%
- IC50 (Bl6FI0 melanoma cells): 3.4 µM
